Measured values published in article PMC7650249.

What was measured:
[1] = target: activated protein C S12C/R312C mutant, labeled with AF555/AF647 (human) (UniProt P04070); experiment: other fluorescence titration; single molecule FRET of freely diffusing labeled protein C or APC (150 pM) titrated with thrombin S195A; shift of the peak center of the low FRET population, single-site fit; 20 mM Tris, 145 mM NaCl, 0.02% Tween 20, pH 7.5, 10 mM EDTA, 20 °C
[2] = target: protein C S12C/R312C mutant, labeled with AF555/AF647 (two-chain zymogen) (human) (UniProt P04070); experiment: as above

- Kd [1]: 1100 nM
- Kd [2]: 860 nM
Substance: thrombin, catalytically inactive mutant S195A (enzyme)
